Key:
[1] = tested on: endogenous AHAS genes (three homoeologous copies); experiment: transient assay of ZFN-mediated HR-directed AHAS editing in biolistically transfected scutella of immature zygotic embryos; type: cell-based, Triticum aestivum; conditions: for Editing Frequency (ppm): HR-directed, scutella
From the text: Donor DNA designs were based on a plasmid DNA vector containing 750-bp homology arms (i.e. sequence identical to the endogenous AHAS gene) flanking each side of the target cleavage site for ZFNs 29732 and 29730. A plasmid DNA vector was designed for each of the three wheat sub-genomes: pDAS000132 (FIG. 3), pDAS000133 (FIG. 4) and pDAS000134 (FIG. 5) were designed to the A-, B- and D-genome, respectively (SEQ ID NO:65, SEQ ID NO:66, and SEQ ID NO:67). Each plasmid DNA vector was designed to introduce an S653N ([…]) mutation as a genomic modification conferring tolerance to imidazolinone class herbicides at the target homoeologous copy of the endogenous AHAS gene by ZFN-mediated HR-directed DNA repair. Two additional plasmid DNA constructs were also designed to target the D-genome. The first plasmid DNA, pDAS000135 (SEQ ID NO: 68) (FIG. 6), was identical to pDAS000134 except that it contained two additional (synonymous) single nucleotide point mutations, one each located at 15-bp upstream and downstream of the S653N mutation.
Seedlings of the donor wheat line were grown in an environment controlled growth room maintained at 18/16° C. (day/night) and a 16/8 hour (day/night) photoperiod with lighting provided at […]. Wheat spikes were collected at 12-14 days post-anthesis and were surface sterilized by soaking for 1 min in 70% (v/v) ethanol. The spikes were threshed and the immature seeds were sterilized for 15 min in 17% (v/v) bleach with gentle shaking, followed by rinsing at least three times with sterile distilled water. The embryos were aseptically isolated from the immature seeds under a dissecting microscope. The embryonic axis was removed using a sharp scalpel and discarded. The scutella were placed into a 9 cm PETRI™ dish containing osmotic MS (E3 maltose) medium, with the uncut scutellum oriented upwards. A total of 20 scutella were plated onto each 9 cm PETRI™ dish. The prepared embryos were pre-cultured in the dark at 26° C. for a minimum of 4 h before transfection using biolistics-mediated DNA delivery.
Gold particles for biolistic-mediated DNA delivery were prepared by adding 40 mg of 0.6 micron colloidal gold particles (BioRad) to 1 mL of sterile water in a 1.5 mL microtube. The gold particles were resuspended by vortexing for 5 min. To prepare sufficient material for 10 bombardments, a 50 μL aliquot of the gold particle suspension was transferred to a 1.5 mL microtube containing 5 μg of DNA resuspended in 5 μL of sterile water. Following thorough mixing by vortexing, 50 μL of 2.5 M CaCl2 and 20 μL of 0.1 M spermidine were added to the microtube, with thorough mixing after the addition of each reagent. The DNA-coated gold particles were pelleted by centrifugation for 1 min at maximum speed in a bench top microfuge. The supernatant was removed and 1 mL of 100% ethanol was added to wash and resuspend the gold particles. The gold particles were pelleted by centrifugation, as described above, and the supernatant discarded. The DNA-coated gold particles were resuspended in 110 μL of 100% ethanol and maintained on ice. Following a brief vortex, 10 μL of the gold particle solution was placed centrally onto a macro-carrier membrane and allowed to air dry.
The PDS-1000/HE PARTICLE GUN DELIVERY SYSTEM™ (BioRad) was used to transfect the scutella of immature zygotic wheat embryos by biolistic-mediated DNA delivery. Delivery of the DNA-coated gold particles was performed using the following settings: gap 2.5 cm, stopping plate aperture 0.8 cm, target distance 6.0 cm, vacuum 91.4-94.8 kPa, vacuum flow rate 5.0 and vent flow rate 4.5. The scutella of immature zygotic wheat embryos were bombarded using a 900 psi rupture disc. Each PETRI™ dish containing 20 scutella was bombarded once. The bombarded scutella were incubated at 26° C. in the dark for 16 h before being transferred onto medium for callus induction. The scutella were cultured on callus induction medium in the dark at 26° C. for 7 d. […]

[2] = tested on: endogenous AHAS locus in scutella of cv. Bobwhite MPB26RH; experiment: biolistics-mediated transformation for first sequential transgene stack with IMAZAMOX or BASTA selection; type: cell-based, Triticum aestivum; conditions: donor with pDAB109350 at 5:1
Experimental: A total of 55,468 scutella of immature zygotic embryos from the donor wheat line cv. Bobwhite MPB26RH were prepared for biolistics-mediated DNA delivery, as described previously. DNA-coated gold particles were prepared with the formulations as described above. For transfections performed using the linear double-stranded donor DNA derived from “QA_pDAS000434” or pDAS000433, the donor DNA was mixed at a 5:1 molar ratio with plasmid DNA for pDAB109350 (encoding ZFNs 29732 and 29730). Transfections performed using pDAS000143 were performed using gold particles that were coated only with plasmid DNA for pDAS000143.
Biolistic-mediated transfections were performed as described previously. Following bombardment, the transfected scutella were incubated at 26° C. in the dark for 16 h before being transferred onto medium for callus induction.
Two different chemical selection strategies were used to enrich for regenerated wheat plants with an integrated linear double-stranded donor molecule. […] The purpose of the second chemical selection strategy was to allow the frequency of precise (on-target) versus random (off-target) donor integration to be quantified, as well as the frequency of perfect and imperfect integration at the endogenous AHAS loci. […]

Molecule	Editing Frequency (ppm) ([1]; wheat sub-genome A, ZFN 29732-2A-29730, donor-to-ZFN molar ratio 5:1)	Editing Frequency (ppm) ([1]; wheat sub-genome A, ZFN 29732-2A-29730, donor-to-ZFN molar ratio 10:1)	Editing Frequency (ppm) ([1]; wheat sub-genome A, ZFN n/a (donor only), average of three biological replicates)	Editing Frequency (ppm) ([1]; wheat sub-genome B, ZFN 29732-2A-29730, ratio 5:1)	Editing Frequency (ppm) ([1]; wheat sub-genome B, ZFN 29732-2A-29730, ratio 10:1)	Editing Frequency (ppm) ([1]; wheat sub-genome B, ZFN n/a (donor only))	Editing Frequency (ppm) ([1]; wheat sub-genome D, ZFN 29732-2A-29730, ratio 5:1)	Editing Frequency (ppm) ([1]; wheat sub-genome D, ZFN 29732-2A-29730, ratio 10:1)	Editing Frequency (ppm) ([1]; wheat sub-genome D, ZFN n/a (donor only))	molecular evidence for ZFN-mediated HR-directed editing in all three homoeologous copies of endogenous AHAS ([1]; co-transfected with pDAB109350, scutella (pDAS000131 and pDAS000134 also SEC protoplasts))	wheat plants recovered ([2]; BASTA selection)	wheat plants with AHAS herbicide tolerance phenotype recovered ([2]; IMAZAMOX selection)
pDAS000132: plasmid donor DNA, 750-bp homology arms, A-genome, introduces S653N mutation; SEQ ID NO:65 (nucleic acid, pDAS000132) DNA: TGCAAGCAGGTCCAAGATTGTGCACATTGACATTGACCCAGCTGAGATTGGCAAGAACAAGCAGCCACATGTCTCCATTTGTGCAGATGTTAAGCTTGCTTTACAGGGGTTGAATGCTCTATTAAATGGGAGCAAAGCACAACAGGGTCTGGATTTTGGTCCATGGCACAAGGAGTTGGATCAGCAGAAGAGGGAGTTTCCTCTAGGATTCAAGACTTTTGGCGAGGCCATCCCGCCGCAATATGCTATCCAGGTACTGGATGAGCTGACAAAAGGGGAGGCGATCATTGCTACTGGTGTTGGGCAGCACCAGATGTGGGCGGCTCAGTATTACACTTACAAGCGGCCACGGCAGTGGCTGTCTTCGTCTGGTTGGGGGCAATGGGATTTGGGTTACCAGCTGCAGCTGGCGCTGCTGTGGCCAACCCAGGTGTTACAGTTGTTGACATTGATGGAGATGGTAGTTTCCTCATGAACATTCAGGAGTTGGCATTGATCCGTATTGAGAACCTCCCTGTGAAGGTGATGATATTGAACAACCAGCATCTGGGAATGGTGGTGCAATGGGAGGATAGGTTTTACAAGGCCAATCGGGCGCACACATACCTTGGCAACCCAGAAAATGAGAGTGAGATATATCCAGATTTTGTGACGATTGCTAAAGGATTCAACGTTCCGGCAGTTCGTGTGACGAAGAAGAGCGAAGTCACTGCAGCAATCAAGAAGATGCTTGAGACCCCAGGGCCATACTTGTTGGATATCATCGTCCCGCATCAGGAGCACGTGCTGCCTATGATCCCAAATGGTGGTGCTTTCAAGGACATGATCATGGAGGGTGATGGCAGGACCTCGTACTGAAATTTCGACCTACAAGACCTACAAGTGTGACATGCGCAATCAGCATGGTGCCCGCGTGTTGTATCAACTACTAGGGGTTCAACTGTGAACCATGCGTTTTCTAGTTTGCTTGTTTCATTCATATAAGCTTGTGTTACTTAGTTCCGAACCCTGTAGCTTTGTAGTCTATGCTCTCTTTTGTAGGGATGTGCTGTCATAAGATATCATGCAAGTTTCTTGTCCTACATATCAATAATAAGTACTTCCATGGAATAATTCTCAGTTCTGTTTTGAATTTTGCATCTTCTCACAAACAGTGTGCTGGTTCCTTTCTGTTACTTTACATGTCTGCCGTGTCCGGTTATGACATAATGACCGATGGAGGGTGGTCAGCAGGTTTTAGACGGGGAGTTGAAACTTTTTTTTGGGGGGAAGAAATCTGAATACAGTTGGGAGGAAAGATAAAAGCATATACCTTGATTAATTTATTGAGCCCAATATCCAGCCTAATTTATCAAGCAATAGGCAGTGTAGGGTGTTGGC	2,353 ppm	1,800 ppm	5	42	30	0	110	61	0	strong molecular evidence	–	–
pDAS000433: donor molecule backbone for first transgene stack, S653N; SEQ ID NO:71 (nucleic acid, pDAS000433) DNA: CCACTCTTGCCCTACACGACACTGAAGACCTTATGATTCCAAACGGCGGCGCCTTCAAGGACATGATCATGGAGGGTGATGGCAGGACCTCGTACTGAAATTTCGACCTACAAGACCTACAAGTGTGACATGCGCAATCAGCATGGTGCCCGCGTGTTGTATCAACTACTAGGGGTTCAACTGTGAACCATGCGTTTTCTAGTTTGCTTGTTTCATTCATATAAGCTTGTGTTACTTAGTTCCGAACCCTGTAGCTTTGTAGTCTATGCTCTCTTTTGTAGGGATGTGCTGTCATAAGATATCATGCAAGTTTCTTGTCCTACATATCAATAATAAGTACTTCCATGGAATAATTCTCAGTTCTGTTTTGAATTTTGCATCTTCTCACAAACAGTGTGCTGGTTCCTTTCTGTTCGCTGACGCCCTCCTCGACTCCATCCCCATGGTCGCCATCACGGGCCAGGTCCCCCGCCGCATGATCGGTAGCGACTTCGTGGGCGAGGAAAGCCTTTCGTCCAAGGTGGTCCCTCCTCGCAATCTTGTTGGATGGTGAATATTATAAAAGCCTGCCCTTCTCGCGGGTAAGACTCCCGCCCATCCAGGATGAGGATGACCAGCCTTTTGCAGTTTATCCACTAGGGACAGGATTGCATCCTGCCGAAACCCTGCCAAGCTTGAGGTAGCCTCCAATTTGACGGTGCCGCCAGCGACGCCGTCTGGAACTGTCCTTTTTGAGGACCACTCCGTTTGTCTAGAGGTACCTGGAGATCATGACATTAAGGATGACCAGTTCGTAAAGGTCCTGCGGTGTCTATTGCTTTTCATAGGTTAATAAGTGTTTGCTAGACTGTGGTGAAAGGCCAAGACTCCCGCCCATCTCTCTATGCCCGGGACAAGTGCCACCCCACAGTGGGGCAGGATGAGGATGACCAAAGACTCCCGCCCATCTCACTAGGGACAGGATTGGCCTTTTGCAGTTTATCTCTATGCCCGGGACAAGTGTATCCGAAGTAAATAAAACCATCGGACTCTCGTATAAGACTGTCGACTCGACCGGCCGACGCATAGGTTCATTTGAAGCTGCTATTCTATTTAAATTGAAACTCGGACGGTAGCAGTGTGGTATGAGGTCTTCAGCACACTCGGTAACTCCAGTCAC	–	–	–	–	–	–	–	–	–	–	1,652	No wheat plants

Reference: US10501748B2, “Methods and compositions for integration of an exogenous sequence within the genome of plants” (Dow AgroSciences LLC, priority 2013, dated 2019)
